This is an account of results in patent US20200277375A1 (ULTRAHUMAN FOUR, published 2020).

Experiment [1] deals with T1, cynomolgus monkey CD47 on transfected CHO-K1 cells (cynomolgus monkey, UniProt A0A5F8AK49 19-323 (rhesus entry)).
T1 construct: whole, on cells; also called cyno CD47+ cells
Put plainly: flow cytometry, cyno CD47-transfected CHO-K1, FIG. 6. As for the experimental part: (§1) FIG. 6A-FIG. 6C. Flow cytometric binding to human and cyno CD47+CHO-K1 cells. Commercial anti-CD47 antibody MS1991, human IgG1 (“I IgG1”) and IgG4 (“I IgG4”) Isotype controls, lead library-derived IgGs in both IgG1null (“IgG1N”) and IgG4(S228P) formats were examined for specific binding on cyno-transfected CHO-K1 cells (FIG. 6A), human-transfected CHO-K1 cells (FIG. 6B), and wild type (wt, i.e. untransfected) CHO-K1 cells (FIG. 6C). IgGs were tested at concentrations ranging from 24-100,000 ng/ml. Concentration-dependent binding was observed against both human and cyno cell lines for all CD47-specific antibodies but not Isotype controls.
(§2) Antibodies to CD47 were analysed for concentration-dependent binding at the cell surface via flow cytometry. CHO-K1 cells were stably transfected with either human, mouse or cyno CD47 full-length cDNAs. Anti-CD47 IgGs mVH/mVL, VH-A1/VL-B1, A-D5, G-B6, F-E7 and D-H3, and an isotype control IgG1 were then all tested in IgG1null and IgG4(S228P) formats, alongside a commercial mouse anti-human CD47 monoclonal MS1991, over a concentration range of 100,000-24 ng/ml for binding to human, cyno or wild type control (‘wt’, i.e. untransfected) CHO-K1.

For experiment [2], the target named is T2, cynomolgus monkey CD47-Fc (cynomolgus monkey, UniProt A0A2K5X523 19-139).
T2 construct: Recombinant CD47-Fc; also called cyno CD47-Fc; cCD47-Fc; not shown: Fc part
Description: direct specificity ELISA, IgG 1 µg/ml, FIG. 5. The text has this: (§3) FIG. 5A-FIG. 5G. Binding specificity analyses for prioritized lead clones. Off-target homologue binding risk for mVH/mVL in IgG1 (FIG. 5A) and IgG1null (FIG. 5B) format and library-derived leads A-D5 (FIG. 5C), VH-A1/VL-B1 (FIG. 5D), F-E7 (FIG. 5E), D-H3 (FIG. 5F), and G-B6 (FIG. 5G) in IgG1null format was examined by direct ELISA on CD47-Fc orthologs and a panel of 14 human immunoglobulin superfamily proteins as labelled on each X-axis (“B” refers to blank). Binding to human, cyno and murine CD47-Fcs (h/c/mCD47-Fc) was performed at an IgG concentration of 1 μg/ml. Binding to all other proteins was performed at an IgG concentration of 10 μg/ml.
(§4) To ensure that that lead clones had not suffered from loss of target specificity during the mutation and reselection process; lead and control IgG1 clones were tested for binding to a panel of 14 purified human proteins from the immunoglobulin superfamily (FIG. 5).

Experiment [3] has as its target T3, human CD47-Fc (human, UniProt Q08722 19-139).
T3 construct: Recombinant CD47-Fc; also called hCD47-Fc; not shown: Fc part
Description: direct specificity ELISA, IgG 1 µg/ml, FIG. 5.
Description: as §3, §4
In general terms: In an ELISA, binding on a coated surface is turned into a signal by an enzyme label.

Experiment [4] concerns the target T4, mouse CD47-Fc (mouse, UniProt Q61735 19-140, limits assumed).
T4 construct: Recombinant CD47-Fc; also called mCD47-Fc; mCD37-Fc [sic]; not shown: Fc part
T4 sequence (looked up): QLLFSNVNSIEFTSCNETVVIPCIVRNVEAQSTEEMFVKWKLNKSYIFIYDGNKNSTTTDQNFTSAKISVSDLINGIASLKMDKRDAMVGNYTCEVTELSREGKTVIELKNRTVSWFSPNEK
Description: direct specificity ELISA, IgG 1 µg/ml, FIG. 5.
Description: as §3, §4

Experiment [5] deals with T5, human CD47 on cells (human CD47-transfected CHO-K1; HL60) (human, UniProt Q08722 19-323).
T5 construct: whole, on cells; also called human CD47+ cells; human CD47+HL60 cells
Put plainly: flow cytometry, human CD47-transfected CHO-K1, FIG. 6. As for the experimental part:
as §1, §2

Experiment [6] addresses T2, cynomolgus monkey CD47-Fc. Description: direct specificity ELISA, IgG 10 µg/ml, FIG. 13.
The target in experiment [7] is T3, human CD47-Fc. Description: direct specificity ELISA, IgG 10 µg/ml, FIG. 13.
Experiment [8] addresses T4, mouse CD47-Fc. Description: direct specificity ELISA, IgG 10 µg/ml, FIG. 13.
Experiment [9] deals with T4, mouse CD47-Fc. Put plainly: direct titration ELISA, FIG. 18C. The protocol:
(§5) FIG. 18A-FIG. 18C. Direct titration ELISA for A-D5.16 and A-D5.16-DI designer IgGs binding to human, mouse and cyno CD47-Fc proteins. Chimeric anti-CD47 (mVH/mVL), designer A-D5.16 and A-D5.16-DI clones in human IgG1null format were titrated (in μg/ml) in a direct binding ELISA against human (FIG. 18A), cyno (FIG. 18B) and mouse (FIG. 18C) CD47-Fc proteins.
(§6) To coat Greiner Bio-One High bind ELISA plates, target proteins were diluted to 1 μg/ml in carbonate buffer and added at 100 μl per well, at 4° C., o/n. Coated plates were washed 3× with PBS pH7.4, blocked with 1% BSA in PBS (380 μl/well) for 1 hr at RT, then washed 3× with PBS-Tween 20 (PBST). CD47 antibodies (100 μl/well; diluted in PBST) were then added and then incubated 1 hr at RT. Plates were then washed 3× with PBST and goat anti-human kappa chain-HRP added (100 μl/well) at RT, for 1 hr. Plates were then washed 3× with PBST and twice with PBS before the addition of 100 μl TMB per well. Reactions were stopped by adding 100 μl 2M H₂SO₄/well and OD was read on a plate reader at 450 nm.

Experiment [10] has as its target T3, human CD47-Fc. Description: direct titration ELISA, FIG. 18A. The protocol: as §5, §6
Experiment [11] has as its target T4, mouse CD47-Fc. Put plainly: direct titration ELISA, FIG. 9C. The protocol: (§7) FIG. 9A-FIG. 9C. Direct titration ELISA for designer IgGs binding to human, mouse and cyno CD47-Fc proteins. Chimeric anti-CD47 (mVH/mVL), designer A-D5-derived clones in human IgG1null format were titrated (in μg/ml) in a direct binding ELISA against human (FIG. 9A), cyno (FIG. 9B) and mouse (FIG. 9C) CD47-Fc proteins. […] In the figure legend, “IgG1NI” refers to IgG1 null isotype.
as §6

The target of experiment [12] is T3, human CD47-Fc. Description: direct titration ELISA, FIG. 9A. As for the experimental part: as §7, §6
Experiment [13] has as its target T3, human CD47-Fc. Put plainly: direct titration ELISA, FIG. 3. As for the experimental part: (§8) FIG. 3A-FIG. 3H. Direct titration ELISA for IgG binding to human, mouse and cyno CD47-Fc proteins. Chimeric anti-CD47 (mVH/mVL), library-derived clones in human IgG1 null format were titrated (in μg/ml) in a direct binding ELISA against human, mouse and cyno CD47-Fc proteins (FIG. 3A-FIG. 3H). […] Clone TTP lost almost all binding function.
as §6

Experiment [14] concerns the target T4, mouse CD47-Fc. Put plainly: direct titration ELISA, FIG. 3. As for the experimental part: as §8, §6
The target in experiment [15] is T2, cynomolgus monkey CD47-Fc. Description: direct titration ELISA (FIG. 11) or CD47-SIRPα competition ELISA (FIG. 12). The protocol:
as §6
(§9) A competition ELISA assay was established to examine the capacity of optimized leads to block the binding interaction of CD47 with SIRPα. To coat Greiner Bio-One High bind ELISA plates, 10 μg/ml human SIRPα-Fc in carbonate coating buffer was added at 100 μl per well, at 4° C., o/n. Coated plates were washed 3× with PBS pH7.4, blocked with 1% BSA in PBS (380 μl/well) for 1 hr at RT, then washed 3× with PBS-Tween 20 (PBST). Biotinylated human, mouse or cyno CD47-Fc was then added at 0.2 μg/ml in PBS, 100 μl per well, at room temperature for 60 minutes with or without the addition of competing IgGs. Plates were then washed 3× with PBST and Streptavidin-HRP added (100 μl/well) at room temperature, for 1 hr. Plates were then washed 3× with PBST and twice with PBS before the addition of 100 μl TMB per well. Reactions were stopped by adding 100 μl 2M H₂SO₄/well and OD was read on a plate reader at 450 nm.

Experiment [16] addresses T3, human CD47-Fc. The description is as above. The protocol:
as §6, §9

Experiment [17] has as its target T4, mouse CD47-Fc. The description is as above. As for the experimental part:
as §6, §9

Changes are numbered by the printed parent chain. Names may count otherwise.

B1: G-B6 in human IgG1null format (antibody, V domains shown)
VH: EVQLVQSGAEVKKPGESLKISCKGSGYSFTNYYIFWVRQMPGKGLEWIGDINPVNGDTNFSPSFQGQVTISADKSISTAYLQWSSLKASDTAMYYCARGGYTMDKWGQGTLVTVSS
VL: DIVMTQSPLSLPVTPGEPASISCRSSQSLVHSNGYTYLHWYLQKPGQSPQLLIYKGSYRASGVPDRFSGSGSGTDFTLKISRVEAEDVGVYYCSQNTQTPRTFGQGTKVEIK
notes: IgG1null (L234A/L235A/G237A), kappa
Turning to B1, the “maximum MFI, fold over untransfected CHO-K1” value (from here on “maximum MFI, fold”) in experiment [1] and in experiment [5] was over 10 fold throughout. Moreover, the OD450 nm in experiment [2] is over 2 OD450 nm; with human CD47-Fc [3] it was over 2 OD450 nm; in the experiment with mouse CD47-Fc [4] it was over 1.25 OD450 nm.

B2: A-D5.4 in human IgG1null format (antibody, V domains shown)
VH: B1 VH with S28T, I48M, D50I, N55D, F60Y, S61N, K105R
VL: B1 VL with V30L, T36N, G56V, Y58N, A60L, S94F, Q98H
notes: Designer clone from A-D5; IgG1null; also called A-D.4
On to B2, for which the OD450 nm (in [6]; with human CD47-Fc [7]; in the experiment with mouse CD47-Fc [8]) was over 2 OD450 nm throughout.

B3: A-D5.16-DI in human IgG1null format (antibody, V domains shown)
VH: B1 VH with I48M, D50I, N55D, N59R, F60Y, K105R
VL: B1 VL with V30L, N33A, T36N, G56V, Y58N, A60F, V88A, S94F, Q98H
notes: Deimmunised light chain paired with the A-D5.16 VH; IgG1null
Turning to B3, the binding result with mouse CD47-Fc [9] and with human CD47-Fc [10] was “binds” throughout.

B4: A-D5.8 in human IgG1null format (antibody, V domains shown)
VH: B1 VH with S28T, I48M, D50I, N55D, F60Y, S61N, K105R
VL: B1 VL with V30L, N33Q, G56V, Y58N, A60L, S94F, Q98H
notes: Designer clone from A-D5; IgG1null
Take B4: the binding result with mouse CD47-Fc [11] and with human CD47-Fc [12] was “binds” throughout.

B5: MH (Maximally Humanized) in human IgG1null format (antibody, V domains shown)
VH: B1 VH with D50I, N55D, N59R, F60Y, K105I
VL: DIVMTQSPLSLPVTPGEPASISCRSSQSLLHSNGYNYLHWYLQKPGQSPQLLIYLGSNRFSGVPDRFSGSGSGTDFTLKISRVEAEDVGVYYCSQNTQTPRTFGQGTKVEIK
notes: Designer clone; IgG1null, kappa; also called designer clone MH
As for B5, the binding result with human CD47-Fc [13] and in the experiment with mouse CD47-Fc [14] was “binds” each time.

B6: A-D5.16 in human IgG1null format (antibody, V domains shown)
VH: B1 VH with I48M, D50I, N55D, N59R, F60Y, K105R
VL: B1 VL with V30L, N33A, T36N, G56V, Y58N, A60L, S94F, Q98H
notes: Designer clone from A-D5.4; IgG1null; also called A-D.16
For B6, the “fold reduction in potency versus A-D5 and mVL/mVH” value (in experiment [15]; with human CD47-Fc [16]; with mouse CD47-Fc [17]) was about 3 fold each time. Further, the OD450 nm (in experiment [6]; in the experiment with human CD47-Fc [7]; in the experiment with mouse CD47-Fc [8]) was over 2 OD450 nm throughout.

B7: D-H3 in human IgG1null format (antibody, V domains shown)
VH: B1 VH with I48M, F60Y, M103P, K105Y
VL: B1 VL with V30L, T36N, Y58N, A60F, T97L, Q98H, T99V
notes: as for B1
Regarding B7, the “maximum MFI, fold” value in [1] and in experiment [5] was over 10 fold throughout. The results for the OD450 nm (in experiment [2]; with human CD47-Fc [3]; with mouse CD47-Fc [4]) were over 2 OD450 nm, over 2 OD450 nm and over 1.25 OD450 nm, respectively.

B8: F-E7 in human IgG1null format (antibody, V domains shown)
VH: B1 VH with I48M, D50I, F60Y, S61N, D104G
VL: B1 VL with Y35N, H39D, A60F, N96A, Q98H
notes: as for B1
B8: the “maximum MFI, fold” value in experiment [1] and in experiment [5] was over 10 fold each time. Further, the OD450 nm in experiment [2] was over 2 OD450 nm; with human CD47-Fc [3], over 2 OD450 nm; in the experiment with mouse CD47-Fc [4] it was over 1.25 OD450 nm.

B9: A-D5 in human IgG1null format (antibody, V domains shown)
VH: B1 VH with S28T, I48M, D50I, N55D, F60Y, S61N, K105R
VL: B1 VL with V30L, G56V, Y58N, A60L, S94F, Q98H
notes: IgG1null (IgG1 L234A/L235A/G237A), kappa; also called IgG1 A-D5N
As for B9, the “maximum MFI, fold” value in experiment [1] and in experiment [5] was over 10 fold each time. Besides, the OD450 nm in [2] was over 2 OD450 nm; in the experiment with human CD47-Fc [3] it was over 2 OD450 nm; with mouse CD47-Fc [4], over 1.25 OD450 nm.

B10: A-D5.2 in human IgG1null format (antibody, V domains shown)
VH: B1 VH with I48M, D50I, N55D, N59R, F60Y, S61N, K105R
VL: B1 VL with V30L, G56V, Y58N, A60L, S94F, Q98H
notes: as for B4
As to B10, the binding result in the experiment with mouse CD47-Fc [11] and in the experiment with human CD47-Fc [12] was “binds” throughout.
